Source: patent US20240043512A1 (IMCARE BIOTECH, published 2024)

B1: IM-C6 (antibody, V domains shown)
VH: QSVKESEGGLFKPTDALTLTCTVSGFSLSSYAISWVRQAPGSGLEWIGAINTYGGTYYASWAKSRSTITRNTNENTVTLKMTSLTAADTATYFCARDFDSDAYTSASGGMDWGPGTLVTVSS
VL: AYDMTQTPASVEVAVGGTVTIKCQASQSINNYLSWYQQIPGQPPKLLIYRASTLASGVSSRFKGSGSGTQFTLTISGVQCADAATYYCQQGYTSNVDNVFGGGTEVVVKG
notes: Rabbit monoclonal, Class II
B2: IM-E2 (antibody, V domains shown)
VH: QSVKESEGGLFKPTDTLTLTCTVSGFSLSAYAISWVRQAPGNGLEWIGAINSGGSAYYANWAKSRSTITRNTNLNTVTLKMTSLTAADTATYFCAREDIYDYGGAFDPWGPGTLVTVST
VL: AYDMTQTPASVEVTVGGTVTIKCQASQGISSYLSWYQQKPGQPPKLLIYAATTLVSGVSSRFKGSGSGTQFTLTISGVECADAATYYCQQDYTTSNVDNTFGGGTEVVVKG
notes: Rabbit monoclonal, Class II

Target: T1, Peptide A (entire sequence of AS-SPIK without disulfide bonds) (human, cysteine side-groups inactivated, no disulfide bonds)
T1 construct: Synthesized by BioMatik
T1 peptide: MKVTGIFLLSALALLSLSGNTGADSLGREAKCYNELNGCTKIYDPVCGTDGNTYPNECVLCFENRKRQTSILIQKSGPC
Test: ELISA, plate coated with peptide, HRP-labelled antibody
Description: In order to further support the observation that epitopes specific to AS-SPIK and not NS-SPIK are conformation-dependent, additional tests to evaluate antibody binding to various synthesized peptides was completed. Four peptides, each containing sequences from different regions of AS-SPIK were synthesized by BioMatik (Wilmington DE). Peptide A contains the entire sequence of AS-SPIK, but without the formation of any disulfide bonds via the inactivation of cysteine side-groups. Peptide B contains the sequence of AS-SPIK fragment from M₁-G₅₀, Peptide C contains the sequence of AS-SPIK fragment from D₂₃-G₅₀ and Peptide D contains the sequence of AS-SPIK fragment from N₅₁-C₇₉. The binding activity of our monoclonal antibodies to AS-SPIK and the other peptides was tested by ELISA and results for IM-CA22 are shown in FIG. 6. Similar results were obtained from all other monoclonal anti-AS-SPIK antibodies we have developed, including IM-CA18, IM-CA46, IM-CA77, IM-A1, IM-A6, IM-B10, IM-C6, IM-D3, IM-D5, IM-E2, IM-F5, IM-G6 and IM-G7. Briefly, a 96-well plate was coated with Native AS-SPIK and different peptides, the plate then reacted with anti-AS-SPIK antibody (IM-CA22 herein) labeled with HRP. The OD450 nm was determined after incubating the plate with the substrate, TMB.
B1: no binding. B2: no binding.

The binders below were run against IM-CA22 (assay: competition ELISA: 0.5 µg/mL peptide added to prevent the binding of AS-SPIK with IM-CA22; inhibition rate from OD value with vs without peptide).
Chain of IM-CA22 (VH, as listed by the source, chain 1 of 2): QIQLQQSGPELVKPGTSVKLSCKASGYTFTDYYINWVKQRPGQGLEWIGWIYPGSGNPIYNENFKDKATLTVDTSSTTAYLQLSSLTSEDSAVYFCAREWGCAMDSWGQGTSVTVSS
Chain of IM-CA22 (VL, as listed by the source, chain 2 of 2): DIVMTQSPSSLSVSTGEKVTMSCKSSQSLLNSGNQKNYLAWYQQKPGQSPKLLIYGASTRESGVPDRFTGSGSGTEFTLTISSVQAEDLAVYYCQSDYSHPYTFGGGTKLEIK
Work on LLSLSGNTGADSL [SPIK3] yielded an Inhibition % of 11%. Work on SLSGNTGADSLGR [SPIK2] yielded an Inhibition % of 10%. Work on SGNTGADSLGREA [SPIK1] yielded an Inhibition % of 9%. In the case of LSLSGNTGA [SPIK8], the Inhibition % is reported as 11%.
